The values below come from the DeepSol protein solubility set.

The data set can be described thus: soluble on expression in E. coli; label from the status in PepcDB or PDB records.
As for “MPHIAHRKNGTYDQSGFNCSLFCSFVQKQGCRTMIQLTTPVENPVIRERLISYANKLFFVGSCFSLEVGSYMRQAGFRTEINPFGIMYNPLSIAGCIGRLLDPVPYQAEELFEYDGLFHSFDHHGAFSHAKKEETLQHLNDSLHVGHEALLRSDRLFFTWGTAFVYNYVSANKVVANCHKLPERLFRRQMVGIDDLLAVWIPLIERLLSSSPDRRIILTVSPVRHLRDGAVGNQQSKATLVLFCKALTGRFPEHLYYFPAYEIMMDELRDYRYYADDMTHPSSLAVSIIRERFADIFVEKDHREAMDACLKLRRRMAHRPLHPDSPDAMLFEAQTQTLVSALLRKYPDLVLDDIAGEMES”, the “soluble on expression in E. coli” value is “not soluble”.
As to “MPHQSQPGFLLPAIQHHSMQGSLPGERDVTVVGGGFGGLAAAAYLARAGASVTLLEQHDTVGGRAGVLERDGFRFDTGPSWYLMPDVFERFFDHFDHDPHDFYELTRLDPQYRVFWTDGDSATIEPNRRNAHELFESYEEGAGDALATYLDRAATNYDLAMNRVVYPDRTAFRDYASTDMLPLASRLRLFGNMDDYVSRFFDHPKLRQLLEYTLVFLGGAPHNTPALYSIMSHVDLNGNVFYPEGGIAGVVDALAELAVEQGATIETGVGVNAISGRRGEFTLATDDGTRTTDLVVNNANPAYAERELLDTGGRDHAPDYWDDQTYAPSALMFYLGVEGDVEPLAHHSLVLPPDWDGHFAQLFDDPGWPDDPAFYLSVASKTDDTVAPDGHEAVVILLPIAPGLDDTPEIRAQYRDRLLGTLAAQTGVDLRDRIVVEESACVSEFSEQFGDPGGTALGLAHTLFQTGPLRPGKRDGPDGHYYVGAYTNPGIGMPMCLISGEHVTKAVIDDDPAASGSTDPLAVPGEFNFDTPTTAD”, the “soluble on expression in E. coli” value was “not soluble”.
For the sequence “MPIKIPDNLPAKEILTKENIFVMAESRAYSQDIRPLKIVILNLMPIKQTTETQLLRLLGNTPLQVEVSFMYTDTHISKNTSYDHLQTFYQTIDEVKQKKFDGMIITGAPIETLPYDEVDYWNELKQIMEWSKTNVTSTLHICWGAQAGLFYHYGVEKVPLPEKQFGVYPHKINVPNVKLLRGFDDEFYVPHSRHTDINKAQIEAHPDLEILSESEQAGVYIVASKDGKQIFVTGHSEYDACTLQQEYERDRARGLNIQVPENYFPNDDATRKPLLRWRAHSYLLFSNWLNYYVYQETPYDLSRMAGDPLEHHHHHH”, the “soluble on expression in E. coli” value was “soluble”.
As for “MPILEKAPQKMPVKASSWEELDLPKLPVPPLQQTLATYLQCMQHLVPEEQFRKSQAIVKRFGAPGGLGETLQEKLLERQEKTANWVSEYWLNDMYLNNRLALPVNSSPAVIFARQHFQDTNDQLRFAACLISGVLSYKTLLDSHSLPTDWAKGQLSGQPLCMKQYYRLFSSYRLPGHTQDTLVAQKSSIMPEPEHVIVACCNQFFVLDVVINFRRLSEGDLFTQLRKIVKMASNEDERLPPIGLLTSDGRSEWAKARTVLLKDSTNRDSLDMIERCICLVCLDGPGTGELSDTHRALQLLHGGGCSLNGANRWYDKSLQFVVGRDGTCGVVCEHSPFDGIVLVQCTEHLLKHMMTSNKKLVRADSVSELPAPRRLRWKCSPETQGHLASSAEKLQRIVKNLDFIVYKFDNYGKTFIKKQKYSPDGFIQVALQLAYYRLYQRLVPTYESASIRRFQEGRVDNIRSATPEALAFVQAMTDHKAAMPASEKLQLLQTAMQAQTEYTVMAITGMAIDNHLLALRELARDLCKEPPEMFMDETYLMSNRFVLSTSQVPTTMEMFCCYGPVVPNGYGACYNPQPEAITFCISSFHSCKETSSVEFAEAVGASLVDMRDLCSSRQPADSKPPAPKEKARGPTKPSNLDSSH”, the “soluble on expression in E. coli” value was “soluble”.
In the case of “MPKFEVPDGWTVQAFRFTLDPTEDQAKALARHFGARRKAYNWTVATLKADIQAWHASGTVTAKPSLRVLRKRWNTVKDDVCVNTETGVAWWPECSKEAYADGIAGAVEAYWNWQTSRAGKRAGKRVGFPRFKRKGRDQDRVSFTTGAMRVEPDRRHLTLPVIGTVRTHENTRRIERLIKAGRARVLAISVRRNGTRLDASVRVLVQRPQQPKVVHPGSRVGVDVGVRRLATVATADGTAIEQVENPRPLGAALRELRHVCRARSRCTKGSRRYRERTTQISRLHRRVNDVRTHHLHVLTTRLAQTHGRIVVEGLDATEMLRQKGLPGARARRRGLSDAALGTPRRHLSYKTVWYGSALVVADRWFPSSKTCHACRHVQDIGWDEQWQCDRCSVVHQRDDCAAINLARYEETSSIVGPVGAAVKRGADRKTGPRPAGGCEARKGSSPKAAEQPRDGVQVA”, the “soluble on expression in E. coli” value is “not soluble”.
Then “MPKFVVIELNDDAATIDLLSYCVKKNFERVSLLTRLEDHPYLRDDQDVVQDDTQSQGTDGMLLQLNDEERQRLMKMISTPGPQTLSMERIQMAPGQGQHILQQHQIPSTSSYTNNSFIYIKSDPQYKDEPQQQSNQFDATVNSVAHGQAGLSTLEMFACNGSPNGGDVLRRKTPSRKAEDSIKATCKVCGHDVMYSPQRTWNLMRHVWIMHQSSKPNQCSICGYSHIKPYVRKHIESQHKHDSNATIIDLKSPELEAEWSQLLDQCFGVTYRKWKHHKEDTQHTVFAAGDEDYGHEHHFSPEEDVMTTL”, with “not soluble”; and “MPKIKRVKKGKKLKPNVMIFCEGETEEAYLRLIKRKYSAVNIKSKLKVKTCRRQGEALVEYAVSCIRSMGKAERDNYDLFYVMYDKDEQTTESIENAVRCAQRHRPEIKTIFSNECFELWLLLHFEEVNRYMTRENLYGRLEKVLHLKDSYRNFKGAEVCKYLEEKVAIAFQNTNKNWLSPLEEMKINENPYTNFPKELCEMLAQKEVDF”, with “not soluble”; and “MPKISSRDGGRPAQRTVNPIIVTRRGKIARLESGLTPQEAQIEDLVFLRKVLNRADIPYLLIRNHKNRPVLAINIELRAGLERALAAACATEPMYAKTIDEPGLSPVLVATDGLSQLVDPRVVRLYRRRIAPGGFRYGPAFGVELQFWVYEETVIRCPVENSLSRKVLPRNEITPTNVKLYGYKWPTLDGMFAPHASDVVFDIDMVFSWVDGSDPEFRARRMAQMSQYVVGEGDDAEARIRQIDELKYALRSVNMFAPWIRRIFIATDSTPPPWLAEHPKITIVRAEDHFSDRSALPTYNSHAVESQLHHIPGLSEHFLYSNDDMFFGRPLKASMFFSPGGVTRFIEAKTRIGLGANNPARSGFENAARVNRQLLFDRFGQVITRHLEHTAVPLRKSVLIEMEREFPEEFARTAASPFRSDTDISVTNSFYHYYALMTGRAVPQEKAKVLYVDTTSYAGLRLLPKLRKHRGYDFFCLNDGSFPEVPAAQRAERVVSFLERYFPIPAPWEKIAADVSRRDFAVPRTSAPSEGALEHHHHHH”, with “not soluble”.
With “MPKMDVKGIAVTVYSENAMDFISLTDMLRAKDGDFFISDWLRNRNTVEFLGIWEQVHNPNFNYGEFATIRSQAGLNSYKISVKEWVARTHAIGLVAKAGRYGGTYAHKDIAFEFGMWISAEFKIYLIKEFQRLKEAEQQQLGWDIRRNLTKINYRIHTDAIQTNLIPPALTQSQISLIYASEADLLNMALFGKTAKQWREENPNNKGNIRDEANVSQLVCLANLETLNAHFIHQGLPQVERLKILNQTAIHQMKLLLADRSLKQLDGN”, the “soluble on expression in E. coli” value is on record as “not soluble”.
Turning to “MPKSVKVIAVTPEEREAVMSIDFGGAYDFTSPGFNLFEVREKYSEPMDAAAGVVYNLLWNSGLPEKFGCREQTLLNFILQCRRRYRRVPYHNFYHVVDVCQTLHTYLYTGKASELLTELECYVLLVTALVHDLDHMGVNNSFYLKTDSPLGILSSASGNNSVLEVHHCSLAIEILSDPAADVFEGLSGQDVAYAYRALIDCVLATDMARHGDLSRVFDDMAKAGYDSNDQESRRLVMETLIKAGDVSNVTKPFETSRMWAMAVTEEFYRQGDMEKEKGVEVLPMFDRSKNNELARGQIGFIDFVAGKFFRDIVGNLFHGMQWCVDTVNSNRAKWQEILDGRRDSIRPSIV”, the “soluble on expression in E. coli” value is on record as “soluble”.
“MPKVAILIYSVDDIIATLAENEKKGIEIAGGEAEIFQVPDVSYKTEYATEEGKEAAKVAKTNADFSYKILTRETLVEYDYYLFGIPTKFGNFPAEWKSFWDSNTGGLWAKGSLHGKIAGLFVSGAISGKGDTEMCIMNAMSTLVHHGVIYVPLGYKNAYKELTDVEDVNGSCAWGAGCVSGIDGGRPPSLSELRVHQLQGKAFYDRIKDL”: the “soluble on expression in E. coli” value is reported as “not soluble”.
Regarding “MPKVRTKDLIEQFQLELISGEEGIHRPIDTSDLSRPGIEMAGFFTYYPADRVQLLGKTELTFFDTLTSDQKQERMKALCTEETPCIIVTRNQDVPDELLQASRESGMPLLRSSQTTTRLSSRLTNYLEGKLAPTTAVHGVLVDIYGVGVLITGQSGVGKSETALELVKRGHRLVADDSVEIRQEDEDMLVGSSPDLIEHLLEIRGLGIINVMTLFGAGAVRNYKRITLVINLEIWDQKKNYDRLGLDEEKMKIIDTELTKITLPVRPGRNLAVIIEVAAMNFRLKRMGVNAAQQFSERLMSAIELGNQE”, the “soluble on expression in E. coli” value is on record as “not soluble”.
As to “MPLAVDLLHPEPQREIRCHKLKRLVQHPNSYFMDVKCSGCFKISTVFSHATTVVVCVGCNTVLCQPTRGKAKLTEGCSFRKKQ”, the “soluble on expression in E. coli” value is listed as “not soluble”.
Consider “MPLDGEYEPSPTQWVREQVERYESSGGTEGTTLMDTGLPVIVLTTRGARSGKLRKTPLMRVEHEGRYAVVASLGGAPKHPVWYFNVKADPRVELQDGPVKQDMTAREVTGAEKARWWERAVAAYPSYADYQKKTEREIPVFVLEPSHAG”, for which the “soluble on expression in E. coli” value was “not soluble”.
On to “MPLFAGFSPRSGQGDLAEFVDIINGARRDLLFVTAFALPDSILDALLGQPHDDVLRYGLQNTASRITGFHADRTAEFAATALLNNGLEGWLKEGLKGQKGNLLVHTKAIVTDFTSEAPVIISGSHNLSVGASQSNDENFLIIRGDIDLEHHHHHH”, for which the “soluble on expression in E. coli” value was “soluble”.
On to “MPLGLFSSGKAQVLCDEKIPGGKKKEPKQLSENKCKGVTLKLDHTRVTIEKQIAEGGFAIVYVASDRKNNKFALKRQFTKDNEKQLEACCREHSFLKQCIGHKNIVEFVDSYTNCLGNGIWECMLLTEYHQKNVLQLMNERISQNQYLTNDEILSIFTDLCEAVSFIHNRPQPIIHRDLKVENVLISSHKPPHYVLCDFGSATTQILSVEKYGVEYVKSEVERNTTMCYRSPEMIDFYSGLEIGLKSDIWALGVLLYRLCFFCVPFEESPLAIQSVNYQFPSVPNIPDEIKVLIYMLLDIDVNRRPSIYQTSVLAFEANHRKPLSEEIQNKKCTDAVPSLKSCIQLMRDGSNPRNKRDSSPRNPEAPPIQSSSKMASLSQQVPSISNISMPSGSGTVETSVAPRLRPKATTVVPNVPSISPVPPVGLPHLRLPSKGSTDETDGSQVRKVPIDFHHRQSFSGEEQLKPAAEADSAGPLSCPLIKPTDLGFTDLDKPALPRDRAQTDGKRRLPHESDIIFQQQHRRNVSDTSQISRSAFKPYSSQQTTSKTSSQVVRSVEDMSQRQNGGSGEWNPFLVAPFSNNSISRKDGQESAFMMDDSHFGMVFDEIRRKEIPAELDSETSSIDSRDPFGAAPFDQLTVSTSSSAQPVSLPPATDEDDERQLLSETDEEEKYEIDEKEEIQTKKDETINEEDSEIDEQRMNDRRRYSYENIDGVGDDASSDSRGKTDRDDSEEEEDDDSRRGGDTSHDEDSQNTVGSEDGEGGSRPLLEDDGLEDDDDHELISSFSSSSTNYPPLFIGTSTPHTQNPITNPFLRDELTPKMIITAPLPTAKNNLDDDWDLGDRWTDRRDTVFERPASEHQNVFAPATLPRQATPLVCRFKPDLPTAAPVSIIPSMSNTSFPEAVRDSDTVPCEPIIGTLISVGAPTDPPPPPLPKKPTEASPTQETTATIPVALGKKEKLLKKEKKKEKKDGKKDKLKLEEYREKGSSEPETDGSEAEIWTNDGATTFSNKKKKKSTFGLRSSHPSIVANDLQFSSPMPPVVKKSSKDKKSSLTGKNASFVNTSFQPEDHDDPTDL”, for which the “soluble on expression in E. coli” value is “soluble”.
